Measurements taken from patent US20140087995A1 (published 2014).
Numbered stars: 1 amine (or outer) side, 2 acyl side, 3 side chain; on linkers, the order of the positions; unused ones are H or OH. Bridge positions count the residues as written; N and C are the ends. Side chains are listed from the residue outwards. Ends that are not written are not given here. * marks the point of attachment. C20 diacid = O=C(O)CCCCCCCCCCCCCCCCCCC(=O)*; γGlu = O=C(O)[C@H](CCC(=O)[*:2])N[*:1]

T1: human calcitonin receptor (human, UniProt P30988 25-474)
T1 construct: whole, on cells; also called hCTR; hCT
T1 sequence (looked up): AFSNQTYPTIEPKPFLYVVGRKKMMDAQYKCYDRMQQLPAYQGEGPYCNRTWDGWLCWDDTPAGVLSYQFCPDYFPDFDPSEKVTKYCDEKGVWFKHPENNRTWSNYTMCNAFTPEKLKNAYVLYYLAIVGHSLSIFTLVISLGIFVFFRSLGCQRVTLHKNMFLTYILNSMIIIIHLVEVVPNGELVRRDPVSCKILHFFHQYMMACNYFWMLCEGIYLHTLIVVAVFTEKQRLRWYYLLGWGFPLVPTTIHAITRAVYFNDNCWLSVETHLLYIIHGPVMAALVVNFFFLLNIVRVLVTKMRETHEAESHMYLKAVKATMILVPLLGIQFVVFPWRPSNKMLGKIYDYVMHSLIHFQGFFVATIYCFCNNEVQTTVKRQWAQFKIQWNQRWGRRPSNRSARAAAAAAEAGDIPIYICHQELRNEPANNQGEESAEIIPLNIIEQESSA


Experiments:
[1] = molecular target: T1, human calcitonin receptor; experiment: SPA radioligand competition (125I-calcitonin), membranes of BHK cells with human calcitonin receptor
Summary of the method: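 BHK hCTR membranes 35 ng/μL + SPA beads 0.05 mg/well; buffer 50 mM Hepes pH 7.4, 1 mM CaCl2, 5 mM MgCl₂, 0.1% OA, 0.02% Tween20. 120 min, 25° C., shaking. Scintillation count; IC50 by one-site binding competition.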

[2] = molecular target: T1, human calcitonin receptor; experiment: ratio of IC50 at human calcitonin receptor to IC50 at human amylin receptor (SPA competition assays)
Summary of the method: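 Membranes (35 ng/μL final) + SPA beads, 50 mM Hepes pH 7.4 buffer with 1 mM CaCl2, 5 mM MgCl₂, 0.1% OA, 0.02% Tween20; 120 min, 25° C, shaking; centrifuged, counted; IC₅₀ by one-site binding competition.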

| Binder | IC50 [1] [nM] | Ratio hCT/hAmylin binding [2] |
| --- | --- | --- |
| K([γGlu-γGlu-C20 diacid])CNTATCATQRLANFLRHSSPNFGAIPSSTPVGPRTY-NH2 (disulfide 2-7; N-terminus assumed; SMILES CC[C@H](C)[C@H](NC(=O)[C@H](C)NC(=O)CNC(=O)[C@H](Cc1ccccc1)NC(=O)[C@H](CC(N)=O)NC(=O)[C@@H]1CCCN1C(=O)[C@H](CO)NC(=O)[C@H](CO)NC(=O)[C@H](Cc1c[nH]cn1)NC(=O)[C@H](CCCNC(=N)N)NC(=O)[C@H](CC(C)C)NC(=O)[C@H](Cc1ccccc1)NC(=O)[C@H](CC(N)=O)NC(=O)[C@H](C)NC(=O)[C@H](CC(C)C)NC(=O)[C@H](CCCNC(=N)N)NC(=O)[C@H](CCC(N)=O)NC(=O)[C@@H](NC(=O)[C@H](C)NC(=O)[C@@H]1CSSC[C@H](NC(=O)[C@@H](N)CCCCNC(=O)CC[C@H](NC(=O)CC[C@H](NC(=O)CCCCCCCCCCCCCCCCCCC(=O)O)C(=O)O)C(=O)O)C(=O)N[C@@H](CC(N)=O)C(=O)N[C@@H]([C@@H](C)O)C(=O)N[C@@H](C)C(=O)N[C@@H]([C@@H](C)O)C(=O)N1)[C@@H](C)O)C(=O)N1CCC[C@H]1C(=O)N[C@@H](CO)C(=O)N[C@@H](CO)C(=O)N[C@H](C(=O)N1CCC[C@H]1C(=O)N[C@H](C(=O)NCC(=O)N1CCC[C@H]1C(=O)N[C@@H](CCCNC(=N)N)C(=O)N[C@H](C(=O)N[C@@H](Cc1ccc(O)cc1)C(N)=O)[C@@H](C)O)C(C)C)[C@@H](C)O) | 42.8 | 48.6 |
| K([γGlu-γGlu-C20 diacid])CNTATCATQRLAEFLRHSSPNFGAIPSSTNVGRNTY-NH2 (disulfide 2-7; N-terminus assumed; SMILES CC[C@H](C)[C@H](NC(=O)[C@H](C)NC(=O)CNC(=O)[C@H](Cc1ccccc1)NC(=O)[C@H](CC(N)=O)NC(=O)[C@@H]1CCCN1C(=O)[C@H](CO)NC(=O)[C@H](CO)NC(=O)[C@H](Cc1c[nH]cn1)NC(=O)[C@H](CCCNC(=N)N)NC(=O)[C@H](CC(C)C)NC(=O)[C@H](Cc1ccccc1)NC(=O)[C@H](CCC(=O)O)NC(=O)[C@H](C)NC(=O)[C@H](CC(C)C)NC(=O)[C@H](CCCNC(=N)N)NC(=O)[C@H](CCC(N)=O)NC(=O)[C@@H](NC(=O)[C@H](C)NC(=O)[C@@H]1CSSC[C@H](NC(=O)[C@@H](N)CCCCNC(=O)CC[C@H](NC(=O)CC[C@H](NC(=O)CCCCCCCCCCCCCCCCCCC(=O)O)C(=O)O)C(=O)O)C(=O)N[C@@H](CC(N)=O)C(=O)N[C@@H]([C@@H](C)O)C(=O)N[C@@H](C)C(=O)N[C@@H]([C@@H](C)O)C(=O)N1)[C@@H](C)O)C(=O)N1CCC[C@H]1C(=O)N[C@@H](CO)C(=O)N[C@@H](CO)C(=O)N[C@H](C(=O)N[C@@H](CC(N)=O)C(=O)N[C@H](C(=O)NCC(=O)N[C@@H](CCCNC(=N)N)C(=O)N[C@@H](CC(N)=O)C(=O)N[C@H](C(=O)N[C@@H](Cc1ccc(O)cc1)C(N)=O)[C@@H](C)O)C(C)C)[C@@H](C)O, also called compound 88) | 34.9 | 46.5 |

Binders with a lower IC50 [1], results first:

| IC50 [1] [nM] | Ratio hCT/hAmylin binding [2] | Binder |
| --- | --- | --- |
| 23.6 | 87.2 | K([γGlu-C20 diacid])CNTATCATQRLAHFLRHSSPNFGAIPSSTNVGHNTY-NH2 (disulfide 2-7; N-terminus assumed; SMILES CC[C@H](C)[C@H](NC(=O)[C@H](C)NC(=O)CNC(=O)[C@H](Cc1ccccc1)NC(=O)[C@H](CC(N)=O)NC(=O)[C@@H]1CCCN1C(=O)[C@H](CO)NC(=O)[C@H](CO)NC(=O)[C@H](Cc1c[nH]cn1)NC(=O)[C@H](CCCNC(=N)N)NC(=O)[C@H](CC(C)C)NC(=O)[C@H](Cc1ccccc1)NC(=O)[C@H](Cc1c[nH]cn1)NC(=O)[C@H](C)NC(=O)[C@H](CC(C)C)NC(=O)[C@H](CCCNC(=N)N)NC(=O)[C@H](CCC(N)=O)NC(=O)[C@@H](NC(=O)[C@H](C)NC(=O)[C@@H]1CSSC[C@H](NC(=O)[C@@H](N)CCCCNC(=O)CC[C@H](NC(=O)CCCCCCCCCCCCCCCCCCC(=O)O)C(=O)O)C(=O)N[C@@H](CC(N)=O)C(=O)N[C@@H]([C@@H](C)O)C(=O)N[C@@H](C)C(=O)N[C@@H]([C@@H](C)O)C(=O)N1)[C@@H](C)O)C(=O)N1CCC[C@H]1C(=O)N[C@@H](CO)C(=O)N[C@@H](CO)C(=O)N[C@H](C(=O)N[C@@H](CC(N)=O)C(=O)N[C@H](C(=O)NCC(=O)N[C@@H](Cc1c[nH]cn1)C(=O)N[C@@H](CC(N)=O)C(=O)N[C@H](C(=O)N[C@@H](Cc1ccc(O)cc1)C(N)=O)[C@@H](C)O)C(C)C)[C@@H](C)O, also called compound 81) |
| 10.3 | 60.8 | K([γGlu-C20 diacid])CNTATCATQRLAHFLRHSSPNFGAIPSSTNVGSNTY-NH2 (disulfide 2-7; N-terminus assumed; SMILES CC[C@H](C)[C@H](NC(=O)[C@H](C)NC(=O)CNC(=O)[C@H](Cc1ccccc1)NC(=O)[C@H](CC(N)=O)NC(=O)[C@@H]1CCCN1C(=O)[C@H](CO)NC(=O)[C@H](CO)NC(=O)[C@H](Cc1c[nH]cn1)NC(=O)[C@H](CCCNC(=N)N)NC(=O)[C@H](CC(C)C)NC(=O)[C@H](Cc1ccccc1)NC(=O)[C@H](Cc1c[nH]cn1)NC(=O)[C@H](C)NC(=O)[C@H](CC(C)C)NC(=O)[C@H](CCCNC(=N)N)NC(=O)[C@H](CCC(N)=O)NC(=O)[C@@H](NC(=O)[C@H](C)NC(=O)[C@@H]1CSSC[C@H](NC(=O)[C@@H](N)CCCCNC(=O)CC[C@H](NC(=O)CCCCCCCCCCCCCCCCCCC(=O)O)C(=O)O)C(=O)N[C@@H](CC(N)=O)C(=O)N[C@@H]([C@@H](C)O)C(=O)N[C@@H](C)C(=O)N[C@@H]([C@@H](C)O)C(=O)N1)[C@@H](C)O)C(=O)N1CCC[C@H]1C(=O)N[C@@H](CO)C(=O)N[C@@H](CO)C(=O)N[C@H](C(=O)N[C@@H](CC(N)=O)C(=O)N[C@H](C(=O)NCC(=O)N[C@@H](CO)C(=O)N[C@@H](CC(N)=O)C(=O)N[C@H](C(=O)N[C@@H](Cc1ccc(O)cc1)C(N)=O)[C@@H](C)O)C(C)C)[C@@H](C)O, also called compound 70) [N^ε1-[(4S)-4-carboxy-4-(19-carboxynonadecanoylamino)butanoyl]-[His14,Arg17,Pro21,Pro27]-h-amylin] |
| 8.56 | 49.8 | K([γGlu-γGlu-C20 diacid])CNTATCATQRLADFLRHSSPNFGAIPSSTNVGPETY-NH2 (disulfide 2-7; N-terminus assumed; SMILES CC[C@H](C)[C@H](NC(=O)[C@H](C)NC(=O)CNC(=O)[C@H](Cc1ccccc1)NC(=O)[C@H](CC(N)=O)NC(=O)[C@@H]1CCCN1C(=O)[C@H](CO)NC(=O)[C@H](CO)NC(=O)[C@H](Cc1c[nH]cn1)NC(=O)[C@H](CCCNC(=N)N)NC(=O)[C@H](CC(C)C)NC(=O)[C@H](Cc1ccccc1)NC(=O)[C@H](CC(=O)O)NC(=O)[C@H](C)NC(=O)[C@H](CC(C)C)NC(=O)[C@H](CCCNC(=N)N)NC(=O)[C@H](CCC(N)=O)NC(=O)[C@@H](NC(=O)[C@H](C)NC(=O)[C@@H]1CSSC[C@H](NC(=O)[C@@H](N)CCCCNC(=O)CC[C@H](NC(=O)CC[C@H](NC(=O)CCCCCCCCCCCCCCCCCCC(=O)O)C(=O)O)C(=O)O)C(=O)N[C@@H](CC(N)=O)C(=O)N[C@@H]([C@@H](C)O)C(=O)N[C@@H](C)C(=O)N[C@@H]([C@@H](C)O)C(=O)N1)[C@@H](C)O)C(=O)N1CCC[C@H]1C(=O)N[C@@H](CO)C(=O)N[C@@H](CO)C(=O)N[C@H](C(=O)N[C@@H](CC(N)=O)C(=O)N[C@H](C(=O)NCC(=O)N1CCC[C@H]1C(=O)N[C@@H](CCC(=O)O)C(=O)N[C@H](C(=O)N[C@@H](Cc1ccc(O)cc1)C(N)=O)[C@@H](C)O)C(C)C)[C@@H](C)O) |
| 2.04 | 24.8 | K([γGlu-C20 diacid])CNTATCATQRLAHFLRHSSPNFGAIPSSTPVGPNTY-NH2 (disulfide 2-7; N-terminus assumed; SMILES CC[C@H](C)[C@H](NC(=O)[C@H](C)NC(=O)CNC(=O)[C@H](Cc1ccccc1)NC(=O)[C@H](CC(N)=O)NC(=O)[C@@H]1CCCN1C(=O)[C@H](CO)NC(=O)[C@H](CO)NC(=O)[C@H](Cc1c[nH]cn1)NC(=O)[C@H](CCCNC(=N)N)NC(=O)[C@H](CC(C)C)NC(=O)[C@H](Cc1ccccc1)NC(=O)[C@H](Cc1c[nH]cn1)NC(=O)[C@H](C)NC(=O)[C@H](CC(C)C)NC(=O)[C@H](CCCNC(=N)N)NC(=O)[C@H](CCC(N)=O)NC(=O)[C@@H](NC(=O)[C@H](C)NC(=O)[C@@H]1CSSC[C@H](NC(=O)[C@@H](N)CCCCNC(=O)CC[C@H](NC(=O)CCCCCCCCCCCCCCCCCCC(=O)O)C(=O)O)C(=O)N[C@@H](CC(N)=O)C(=O)N[C@@H]([C@@H](C)O)C(=O)N[C@@H](C)C(=O)N[C@@H]([C@@H](C)O)C(=O)N1)[C@@H](C)O)C(=O)N1CCC[C@H]1C(=O)N[C@@H](CO)C(=O)N[C@@H](CO)C(=O)N[C@H](C(=O)N1CCC[C@H]1C(=O)N[C@H](C(=O)NCC(=O)N1CCC[C@H]1C(=O)N[C@@H](CC(N)=O)C(=O)N[C@H](C(=O)N[C@@H](Cc1ccc(O)cc1)C(N)=O)[C@@H](C)O)C(C)C)[C@@H](C)O) |
